Data from patent US10995119B2, “Peptide exhibiting hydrolytic activity and use thereof” (Okinawa Institute of Science and Technology School …, priority 2016, dated 2021).

Legend:
[1] = molecular target: T1, Aβ11-29 (Homo sapiens, UniProt P05067); test: Hydrolysis activity against Aβ11-29
Experimental: (§2) Further, any change in activity caused by addition of human serum albumin (HSA, Wako Pure Chemical Industries, Ltd., final concentration 0.025%) also was measured.
(§3) As substrates, Aβ42 in the form of soluble powder (authentic sample, Peptide Institute Inc.) and fragment peptides thereof, namely, Aβ1-20, Aβ11-29, and soluble Aβ28-42, were used. […] In the case of MS analysis, the MS analysis was performed after applying 20 μl of the reaction solution to HPLC and collecting an aliquot of the peak.
As a substrate, Aβ11-29, which is a fragment peptide of Aβ42, was used. […] In the case of MS analysis, the MS analysis was performed after applying 20 μl of the reaction solution after the reaction for 6 days to HPLC and collecting an aliquot of the peak.
(§4) The present experiment examined activity against Aβ-Fs in Example 7.
The reaction solution V shown in FIG. 52 was incubated at 37° C. for a predetermined time, and autodigestion of ANA-YA4 (YRMI) and cleavage of Aβ11-29 were examined.
A reaction solution VI shown in FIG. 52 was incubated at 37° C. for a predetermined time, and cleavage of Aβ1-20 and Aβ11-29 by ANA-SA5 was examined.
(§5) As substrates, the same Aβ1-20 and Aβ11-29 as used in Example 7 were used.
The present example examined autodigestion and activity against Aβ-F of JAL 12-17 (YKGSGF) and JAL 12-16 (YKGSG). […] As a substrate, the same Aβ11-29 as used in Example 7 was used. The autodigestion was examined by causing the reaction in the same manner, except that the substrate was not added.

[2] = molecular target: solid (insoluble) Aβ1-42 (Homo sapiens, UniProt P05067); test: Hydrolysis activity against solid (insoluble) Aβ1-42
Experimental: As a solid substrate, a crystal of Aβ42 was used. […] In the case of MS analysis, the MS analysis was performed after applying 100 μl of the reaction solution to HPLC and collecting an aliquot of the peak.

[3] = Autodigestion of the catalytic peptide (HPLC, MS); type: biochemical
Experimental: First, to a buffer solution (Tris-HCl, pH 6.5, final concentration: 100 mmol/l), JAL (final concentration: 0.2 mmol/l) and the fragment peptide of hMMP7 (final concentration 0.05 mmol/l) were added. […] Thereafter, the reaction solution was subjected to HPLC, and the peaks of JAL and the fragment peptide of hMMP7 were examined. HPLC was performed under the following conditions.
Next, the mechanism of autodigestion was examined using various mutants of JAL as hydrolytic peptides. To a reaction solution containing each of the mutants of JAL, a protease inhibitor (trade name: Roche cOmplete, Roche) was added to cause a reaction. One tablet of the protease inhibitor was dissolved in 1 ml of Milli-Q water, and then, 50 μl of the resultant mixture was added to the reaction solution. […] As a result, the autodigestion of all the peptides subjected to the measurement was inhibited (FIG. 16).
Autodigestion in Box B was examined.
JAL-TA9 was reacted in the same manner except that a substrate was not added to examine the autodigestion of JAL-TA9.
The influence of an inhibitor on autodigestion of JAL-TA9 was examined. […] As the protease inhibitor, the serine protease inhibitor AEBSF, which inhibited the autodigestion of JAL 12-22 C19M in the item (6) in Example 4, was used.

[4] = molecular target: T2, αA-crystallin (Homo sapiens, UniProt P02489); test: Degradation of αA-crystallin 71-88 fragment peptide; type: biochemical
T2 construct: consisting of 71-88 residues of αA-crystallin; made in house; host or cells: chemical synthesis (Setsunan University)
Text: As a substrate, a fragment peptide with the following sequence consisting of 71-88 residues of αA-crystallin (synthesized in Setsunan University) was used.

[5] = molecular target: Tau MBD 1-30 (Homo sapiens, UniProt P10636); test: Hydrolysis activity against Tau MBD 1-30; type: biochemical
Sequence of Tau MBD 1-30 (P10636 609-638 limits assumed): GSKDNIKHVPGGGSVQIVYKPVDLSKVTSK
Text: As a substrate, a Tau microtubule binding domain (MBD)-derived fragment (Tau MBD1-30) was used.

[6] = tested on: Aβ1-20 and Aβ11-29; test: Reaction rates / Km for Aβ1-20 and Aβ11-29; type: biochemical; details: Aβ-F 0.05, 0.2 or 0.4 mmol/l, 0 or 1 hour
Experimental: HPLC was performed with the Aβ-F concentration in a reaction solution being set to 0.05, 0.2, or 0.4 mmol/l and a reaction time being set to 0 hours or 1 hour. Then, on the basis of the reduction rate of the peak of each Aβ-F, the Km value was determined.

[7] = molecular target: Aβ1-20 (Homo sapiens, UniProt P05067); test: Hydrolysis activity against Aβ1-20
Experimental: as §2, §3, §4, §5

[8] = molecular target: Aβ28-42 (Homo sapiens, UniProt P05067); test: Hydrolysis activity against Aβ28-42; type: biochemical
[9] = molecular target: soluble Aβ1-42 (Aβ42 authentic sample) (Homo sapiens, UniProt P05067); test: Hydrolysis activity against soluble Aβ1-42 (authentic sample)
Experimental: as §3
Aβ42 was used as a substrate. […] In the case of MS analysis, the MS analysis was performed after applying 20 μl of the reaction solution after the reaction for 7 days to HPLC and collecting an aliquot of the peak.

[10] = molecular target: Aβ42 (Homo sapiens, UniProt P05067); test: Intermolecular interaction with Aβ42 (AFFINX QNμ); type: binding; details: JAL-TA9 immobilized on platinum electrode
Text: (§1) Intermolecular interactions of JAL-TA9 with Aβ42 and with Aβ-F were examined using an AFFINX QNμ (trade name, INITIUM, Inc.) in accordance with its protocol. The results obtained are shown in the graphs of FIG. 40. In FIG. 40, X indicates the result obtained when JAL-TA9 was not immobilized on a platinum electrode, and Y indicates the result obtained when JAL-TA9 was immobilized on the platinum electrode.

[11] = molecular target: T1, Aβ11-29; test: Intermolecular interaction with Aβ11-29 (AFFINX QNμ); type: binding; details: JAL-TA9 immobilized on platinum electrode
Text: as §1

[12] = reaction solution composition 1 (PBS, HSA), 37° C., overnight

## PYKGSGFRMI [JAL-TA9]
[1]; Example 7
  cleavage sites in Aβ-Fs (MS): cleaved at a plurality of sites
[1]; [12]
  degradation of Aβ-Fs (HPLC): degraded all the Aβ-Fs
[2]; solid Aβ42
  cleavage of solid Aβ42 (MS): activity against the solid Aβ42 also was observed
[2]; solid Aβ42, reaction solution composition 2
  degradation of Aβ42 (HPLC): degraded both types of Aβ42
[3]; AEBSF 6 mmol/l
  autodigestion in presence of protease inhibitor: autodigestion was inhibited
[3]; Example 7, substrate not added
  autodigestion: autodigestion of JAL-TA9 was observed
[3]; Example 13, with αA-crystallin fragment
  autodigestion: digested itself
[3]; reaction solution IV, 6 hours
  autodigestion in presence of protease inhibitor: inhibited by the protease inhibitor
[4]
  fragment identification by MS: fragments of αA-crystallin resulting from the cleavage by JAL-TA9 were detected
[4]; JAL-TA9 0.2 mmol/l, PBS, HSA, reaction for 1 day
  degradation of αA-crystallin: could degrade αA-crystallin
[5]; reaction for 1 day
  fragment identification by MS: fragments of Tau MBD 1-30 resulting from the cleavage by JAL-TA9
[5]; reaction for 5 days
  fragment identification by MS: fragments of Tau MBD 1-30 resulting from the cleavage by JAL-TA9
[5]; reaction solution composition 3, 37° C., overnight
  degradation of Tau MBD 1-30 (HPLC): degraded Tau MBD 1-30
[6]
  Km value, affinity of substrate to peptide: Aβ11-29 has higher affinity to JAL-TA9 than Aβ1-20
[7]; Example 7
  cleavage sites in Aβ-Fs (MS): cleaved at a plurality of sites
[7]; [12]
  degradation of Aβ-Fs (HPLC): degraded all the Aβ-Fs
[8]; Example 7
  cleavage sites in Aβ-Fs (MS): cleaved at a plurality of sites
[8]; [12]
  degradation of Aβ-Fs (HPLC): degraded all the Aβ-Fs
[9]; authentic sample Aβ42, reaction solution composition 1
  degradation of Aβ42 (HPLC): degraded both types of Aβ42
[9]; soluble authentic sample, 7 days
  cleavage sites in Aβ42 (MS): cleaved at a plurality of sites
[9]; summary of cleavage sites, FIG. 39
  region of Aβ42 cleaved: strong cleavage activity was exhibited against an intermediate region of Aβ42
[10]
  intermolecular interaction: strong interaction
[11]
  intermolecular interaction: strong interaction
